Assay results from the supplement of paper PMC6755084.

Tested on: F1*sub RNA substrate (template-directed ligation)
Assay: fraction ligated after 30 min (ligated reads / total reads); higher = more ligase activity; sequences stand for … in GAGACCGCAACTGAAAAGTTGT…AGTTCTGCACGTAGAAGCAAAAGGC
Conditions: 42 °C
In short: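 Oligo-pool templates of ligase ribozyme variants were PCR-amplified, T7-transcribed and gel-purified. Ligated and unligated bands were gel-separated, reverse transcribed with barcoded primers, and MiSeq-sequenced; core bases were filtered at quality ≥20. Fraction ligated per variant was ligated reads over total reads.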

## TATCACTTGCGTAAGACACTTTGATGGGTTA [3d1692]
  fraction ligated: 0.138

## TATCATTGTCGTAAACACTTTGGAGGGTTGA [3d1233]
  fraction ligated: 0.0387

## TATCACTTGTCGAAGAACTTTGGTGGGTTGA [3d1938]
  fraction ligated: 0.173

## TATCACTTGTGTAAGACCTTTGATGGGTTGA [3d1773]
  fraction ligated: 0.819

## TTCACTTGTCGTAGACATTTGGATGGGTTGA [3d434]
  fraction ligated: 0.742

## TATACTTGTCGTAAACACTTTGGATGGGTTA [3d891]
  fraction ligated: 0.00216

## ATCATTGTCGTAAGCACTTTGGATGGGTTGA [3d94]
  fraction ligated: 0.727

## TTCACTTTCGTAGACACTTTGGATGGGTTGA [3d358]
  fraction ligated: 0.142

## ATCACTTGTCGTAAGACATTTGGATGGGTTGA [2d17]
  fraction ligated: 0.78

## TATCACGTCGTAAGACACTTTGGATGGGTTA [3d1309]
  fraction ligated: 0.734

## TATCACTTGTCGTAAACACTTTGGGGGTTGA [3d2094]
  fraction ligated: 0.0881

## TATCACTTGTCGAAGACACTTTGATGGTTGA [3d1967]
  fraction ligated: 0.0642

## TATACTTGTCGTAAACACTTTGGATGGTTGA [3d890]
  fraction ligated: 0.0192

## ATCACTTTGTAAGACACTTTGGATGGGTTGA [3d124]
  fraction ligated: 0.787

## TATCCTTGTCGAAGCACTTTGGATGGGTTGA [3d1031]
  fraction ligated: 0.775

## TATCACTTGTCTAAGACATTTGGATGGGTTA [3d1876]
  fraction ligated: 0.793

## TATCATTGTCGTAGACACTTGGATGGGTTGA [3d1220]
  fraction ligated: 0.752

## TATCACTTGTCGTAGCACTTTGGTGGGTTGA [3d2008]
  fraction ligated: 0.0859

## TATCACTTGTCGTAAGCCTTGGATGGGTTGA [3d2114]
  fraction ligated: 0.778

## TATACTTGTGTAAGACACTTTGATGGGTTGA [3d837]
  fraction ligated: 0.81

## TATCACTTGCGTAAACACTTTGGTGGGTTGA [3d1644]
  fraction ligated: 0.0539

## TATCCTTGTCGTAAGCACTTTGGATGGTTGA [3d1072]
  fraction ligated: 0.0464

## TATCACTTGTCGAAAACTTTGGATGGGTTGA [3d1915]
  fraction ligated: 0.798

## ATCACTTGTCGAAGAACTTTGGATGGGTTGA [3d188]
  fraction ligated: 0.805

## TACACTTGTCGTAAGACACTTTGGATGGGTTG [2d68]
  fraction ligated: 0.758

## TATCATTGTCTAAGACACTTTGGAGGGTTGA [3d1197]
  fraction ligated: 0.0716

## TATCACTTGCGTAGACACTTGGATGGGTTGA [3d1632]
  fraction ligated: 0.779

## TATCACTTGTCGTAAGACACTGGATGGTTGA [3d2235]
  fraction ligated: 0.0538

## ATCACTTGTCGTAAGAACTTTGGAGGGTTGA [3d235]
  fraction ligated: 0.0738

## TACACTTGTCGTAAGCACTTTGGATGGTTGA [3d689]
  fraction ligated: 0.101

## TTCACTTGTCGTAAGACACTTTGGATGGTTGA [2d44]
  fraction ligated: 0.739

## TATCACTTGCTAAGACCTTTGGATGGGTTGA [3d1604]
  fraction ligated: 0.811

## TACACTTTCGTAAGACACTTTGGATGGTTGA [3d598]
  fraction ligated: 0.0486

## TTCACTTGTCGTAAGAACTTTGGATGGGTTG [3d469]
  fraction ligated: 0.533

## TACACTTTCGTAGACACTTTGGATGGGTTGA [3d588]
  fraction ligated: 0.0222

## TATACTGTCGTAAACACTTTGGATGGGTTGA [3d784]
  fraction ligated: 0.721

## TATCACTTGCGTAAGACACTTGGAGGGTTGA [3d1684]
  fraction ligated: 0.0856

## TATCACTTGTCGTAAGACATTTGATGGGTTA [3d2218]
  fraction ligated: 0.0152

## TATACTTGTCGTAGACACTTTGGAGGGTTGA [3d879]
  fraction ligated: 0.0209

## TATCACTTGTCGTAAACACTTTGGTGGGTTA [3d2096]
  fraction ligated: 0.057

## TATCACTTCGTAAACACTTTGGATGGGTTGA [3d1315]
  fraction ligated: 0.792

## TACACTTGCGTAAGACACTTTGGTGGGTTGA [3d612]
  fraction ligated: 0.0235

## TACACTTGTCGTAGAACTTTGGATGGGTTGA [3d662]
  fraction ligated: 0.145

## TATCTTGTCGTAAACACTTTGGATGGGTTGA [3d746]
  fraction ligated: 0.76

## TATCACTTGCTAAGACACTTTGGATGGGTTA [3d1611]
  fraction ligated: 0.773

## TATCACTGTCGTAAGACACTTTGATGGGTTG [3d1452]
  fraction ligated: 0.754

## TATCACTTGTCGAGACACTTTGGATGGGTTA [3d1913]
  fraction ligated: 0.765

## TATCACTTGTCGTAAGACACTGGTGGGTTGA [3d2233]
  fraction ligated: 0.00438

## TATCACTTGTCTAAACATTTGGATGGGTTGA [3d1838]
  fraction ligated: 0.841

## ATCACTGTCGTAAGACACTTGGATGGGTTGA [3d117]
  fraction ligated: 0.743

## TATCCTTGTCGTAAGACATTTGGTGGGTTGA [3d1092]
  fraction ligated: 0.237

## TATCACTTTCAAGACACTTTGGATGGGTTGA [3d1479]
  fraction ligated: 0.772

## ATACTTGTGTAAGACACTTTGGATGGGTTGA [3d51]
  fraction ligated: 0.734

## TTCACTTGTCGAAGACATTTGGATGGGTTGA [3d421]
  fraction ligated: 0.79

## ATCACTGTGTAAGACACTTTGGATGGGTTGA [3d108]
  fraction ligated: 0.823

## TATCACTTTCTAAGCACTTTGGATGGGTTGA [3d1482]
  fraction ligated: 0.788

## TATCCTTGTGTAAGACACTTTGGATGGGTTA [3d1013]
  fraction ligated: 0.406

## TATCCTTGTCGTAGACACTTTGGATGGGTTA [3d1053]
  fraction ligated: 0.398

## TATCACTTTCGTAAGACATTTGGTGGGTTGA [3d1556]
  fraction ligated: 0.284

## TATCACTTGTCTAAGACACTTGGAGGGTTGA [3d1881]
  fraction ligated: 0.0594

## TATCACTTGTCGTAAGACACTTTGGATGGTTG [2d297]
  fraction ligated: 0.531

## TATCCTTGTGTAAGCACTTTGGATGGGTTGA [3d1004]
  fraction ligated: 0.788

## TACACTGTCGTAAGACACTTTGGATGGGTTG [3d584]
  fraction ligated: 0.321

## TATCACTGTCGTAAGAACTTTGGATGGGTTA [3d1424]
  fraction ligated: 0.851

## TTCACTTGTCGTAAGACACTTTGGTGGTTGA [3d498]
  fraction ligated: 0.014

## TATCTTGTCGTAAGACACTTTGGATGGGTTG [3d757]
  fraction ligated: 0.779

## TATCACTTGTCAAGACACTTTGGTGGGTTGA [3d1818]
  fraction ligated: 0.128

## TATACTGTCTAAGACACTTTGGATGGGTTGA [3d781]
  fraction ligated: 0.651

## TATACTTGCGTAAGACACTTTGGATGGGTTA [3d826]
  fraction ligated: 0.0217

## TATCCTTGCGTAAGACACTTGGATGGGTTGA [3d993]
  fraction ligated: 0.75

## TATCACTTGTCGAGACACTTTGGAGGGTTGA [3d1911]
  fraction ligated: 0.104

## TATCTTTCGTAAGACACTTTGGATGGGTTGA [3d740]
  fraction ligated: 0.837

## TATCACTTGCGTAAGCACTTTGGATGGGTTG [3d1658]
  fraction ligated: 0.832

## TTACTTGTCTAAGACACTTTGGATGGGTTGA [3d283]
  fraction ligated: 0.147

## ACACTTGCGTAAGACACTTTGGATGGGTTGA [3d29]
  fraction ligated: 0.197

## TATCACTTGTCGAAGACACTTGGATGGGTTG [3d1963]
  fraction ligated: 0.794

## TTCACTTGTCGTAAGACACTTGGATGGGTTGA [2d40]
  fraction ligated: 0.656

## TATCACTTGTCGAAGCACTTTGGATGGGTTA [3d1933]
  fraction ligated: 0.723

## TACACTTTCGAAGACACTTTGGATGGGTTGA [3d587]
  fraction ligated: 0.0357

## TATCACTTGTCGTAAACACTTTATGGGTTGA [3d2088]
  fraction ligated: 0.0805

## TATCACTTTCGTAAGACATTTGGATGGGTTA [3d1559]
  fraction ligated: 0.778

## TATCACTTGTGTAAGACACTTTGGATGGTTA [3d1806]
  fraction ligated: 0.101

## TATCACTTGTCTAAGAACTTTGGATGGGTTG [3d1863]
  fraction ligated: 0.782

## TATCACTTGTGTAAGCATTTGGATGGGTTGA [3d1756]
  fraction ligated: 0.851

## TATACTTGTCGTAAGACACTTTGTGGGTTGA [3d933]
  fraction ligated: 0.0152

## TACACTGTCTAAGACACTTTGGATGGGTTGA [3d570]
  fraction ligated: 0.266

## TATCATTGCGTAAGACACTTGGATGGGTTGA [3d1165]
  fraction ligated: 0.773

## TATCACTTTCGTAAGACACTTTGGATGGGTTG [2d162]
  fraction ligated: 0.777

## TATCACTTTCGTAGACATTTGGATGGGTTGA [3d1511]
  fraction ligated: 0.77

## TATCCTTGCGTAAGCACTTTGGATGGGTTGA [3d989]
  fraction ligated: 0.775

## TATCCTTGTCGTAAGAACTTTGGTGGGTTGA [3d1078]
  fraction ligated: 0.0718

## TTCACTTGTCGTAAGACACTTGGAGGGTTGA [3d487]
  fraction ligated: 0.0171

## TATCACTTGTGTAAGAACTTTGGATGGGTTA [3d1770]
  fraction ligated: 0.771

## TATCACTTGTCGTAAGACTTTGGATGGGTTG [3d2113]
  fraction ligated: 0.796

## TACACTTGTCGTAAGACACTTGGAGGGTTGA [3d717]
  fraction ligated: 0.0172

## ATCACTTGTCGTAAGACACTTTGGAGGGTTA [3d271]
  fraction ligated: 0.0188

## TATCACTTGTCGTAGACCTTTGGTGGGTTGA [3d2023]
  fraction ligated: 0.234

## TATCACTTGCGAAGAACTTTGGATGGGTTGA [3d1616]
  fraction ligated: 0.842

## TACACTTGTCGTAAGAACTTTGGAGGGTTGA [3d696]
  fraction ligated: 0.0171

## TATCACTTTTAAGACACTTTGGATGGGTTGA [3d1464]
  fraction ligated: 0.768

## TATCACTTGTCGTAGACACTTTGGTGGGTTGA [2d229]
  fraction ligated: 0.287

## TATCATTGTCGTAAGCACTTTGGATGGGTTG [3d1246]
  fraction ligated: 0.767

## TATCCTTTCGTAAGCACTTTGGATGGGTTGA [3d973]
  fraction ligated: 0.77

## TATACTTGTCGTAAGACACTTTGGTGGTTGA [3d939]
  fraction ligated: 0.00845

## TATCATTGTGTAAGAACTTTGGATGGGTTGA [3d1177]
  fraction ligated: 0.856

## TATCATTGTCGAAGACACTTTGGTGGGTTGA [3d1209]
  fraction ligated: 0.229

## TATCACTTGTCGTAAGCCTTTGGATGGGTTA [3d2119]
  fraction ligated: 0.79

## TATCACTTGTCGTAAGACACTTTGATGGTTA [3d2267]
  fraction ligated: 0.00859

## TATCACGTCTAAGACACTTTGGATGGGTTGA [3d1296]
  fraction ligated: 0.772

## TATCACTGTCGTAAGACACTTTGGGGGTTGA [3d1453]
  fraction ligated: 0.0319

## TATCACTTGTCGTACACTTTGGATGGGTTGA [3d1981]
  fraction ligated: 0.797

## TATCACTGTCGTAAGAACTTTGGATGGGTTG [3d1425]
  fraction ligated: 0.87
